# In patent publication US11230581B2, “Peptides and combination of peptides for use in immunotherapy against ovarian cancer and other cancers” (Immatics Biotechnologies GmbH, priority 2015, dated 2022):
# Molecular target: HLA-A*02:01 (Homo sapiens, UniProt P04439, D140Y/D185E/D98H/E176V/E277Q/G131W/G231S/I119V/I121R/I166T/I218V/L300P/L318F/N151K/N90K/P208A/P217A/Q86G/Q94H/R138H/R169H/T345S)
# Test: MHC binding assay (UV-ligand exchange, β2m ELISA, peptide exchange yield)
# Conditions: binding of HLA-class I restricted peptides to HLA-A*02:01, UV-ligand exchange
# How it was run: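 Yield of stabilized complexes quantified via the β2m light chain in an ELISA (streptavidin capture, 100-fold diluted monomers, HRP anti-β2m 2 ug/ml at 37 °C, TMB, A450). The complexes come from UV-triggered replacement of a photocleavable ligand by the candidate peptide.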
row,Substance,"Peptide exchange (MHC class I binding score, peptide exchange yield)"
1,111 (YVWGFYPAEV; listed as Homo sapiens) [compound 111],“+++” (≥50 = +++)
2,170 (RLQETLSAA; listed as Homo sapiens) [compound 170],“+++” (≥50 = +++)
3,41 (SLMPHIPGL; listed as Homo sapiens) [compound 41],“+++” (≥50 = +++)
4,82 (FLSSVTYNL; listed as Homo sapiens) [compound 82],“+++” (≥50 = +++)
5,127 (KIGDEPPKV; listed as Homo sapiens) [compound 127],“++” (≥20% = ++)
6,4 (GIMEHITKI; listed as Homo sapiens) [compound 4],“++++” (≥75% = ++++)
7,96 (YIFTDNPAAV; listed as Homo sapiens) [compound 96],“+++” (≥50 = +++)
8,161 (ALLEGVNTV; listed as Homo sapiens) [compound 161],“+++” (≥50 = +++)
9,45 (SLWQDIPDV; listed as Homo sapiens) [compound 45],“+++” (≥50 = +++)
10,173 (LLDSASAGLYL; listed as Homo sapiens) [compound 173],“+++” (≥50 = +++)
11,181 (LLWAGTAFQV; listed as Homo sapiens) [compound 181],“+++” (≥50 = +++)
12,91 (IMQDFPAEIFL; listed as Homo sapiens) [compound 91],“++++” (≥75% = ++++)
13,53 (KMIETDILQKV; listed as Homo sapiens) [compound 53],“++++” (≥75% = ++++)
14,13 (YLMDESLNL; listed as Homo sapiens) [compound 13],“+++” (≥50 = +++)
15,43 (VLSSLEINI; listed as Homo sapiens) [compound 43],“++” (≥20% = ++)
16,87 (ALPEAPAPLLPHIT; listed as Homo sapiens) [compound 87],“++” (≥20% = ++)
17,17 (GLLPGDRLVSV; listed as Homo sapiens) [compound 17],“+++” (≥50 = +++)
18,46 (ILTEENIHL; listed as Homo sapiens) [compound 46],“+++” (≥50 = +++)
19,15 (VLLTFKIFL; listed as Homo sapiens) [compound 15],“++” (≥20% = ++)
20,116 (YHIDEEVGF; listed as Homo sapiens) [compound 116],“+” (≥10% = +)
21,34 (ILVEADSLWVV; listed as Homo sapiens) [compound 34],“+++” (≥50 = +++)

# Now from value to substance:
row,"Peptide exchange (MHC class I binding score, peptide exchange yield)",Substance
1,“++++” (≥75% = ++++),320 (KMFEFVEPLL; listed as Homo sapiens) [compound 320]
2,“++++” (≥75% = ++++),611 (YLLDDGTLVV; listed as Homo sapiens) [compound 611]
3,“+++” (≥50 = +++),244 (SLFGGTEITI; listed as Homo sapiens) [compound 244]
4,“+++” (≥50 = +++),561 (YLQLTQSEL; listed as Homo sapiens) [compound 561]
5,“++++” (≥75% = ++++),466 (VLIANLEKL; listed as Homo sapiens) [compound 466]
6,“++” (≥20% = ++),409 (LLDAMNYHL; listed as Homo sapiens) [compound 409]
7,“++” (≥20% = ++),379 (IMEGTLTRV; listed as Homo sapiens) [compound 379]
8,“++” (≥20% = ++),279 (ALWGGTQPLL; listed as Homo sapiens) [compound 279]
9,“+++” (≥50 = +++),287 (FLNEFFLNV; listed as Homo sapiens) [compound 287]
10,“++++” (≥75% = ++++),348 (ILLDVKTRL; listed as Homo sapiens) [compound 348]
11,“++++” (≥75% = ++++),337 (HLLSELEAAPYL; listed as Homo sapiens) [compound 337]
12,“++” (≥20% = ++),524 (ALIENLTHQI; listed as Homo sapiens) [compound 524]
13,“+++” (≥50 = +++),479 (SLFGNSGILENV; listed as Homo sapiens) [compound 479]
14,“+++” (≥50 = +++),456 (LLIGHLERV; listed as Homo sapiens) [compound 456]
15,“++” (≥20% = ++),440 (ALADGVTMQV; listed as Homo sapiens) [compound 440]
16,“+++” (≥50 = +++),571 (LLLTTIPQI; listed as Homo sapiens) [compound 571]
17,“+++” (≥50 = +++),401 (ILLDDTGLAYI; listed as Homo sapiens) [compound 401]
18,“++” (≥20% = ++),574 (YLLQEPPRTV; listed as Homo sapiens) [compound 574]
19,“+++” (≥50 = +++),317 (SLAALVVHV; listed as Homo sapiens) [compound 317]
20,“++” (≥20% = ++),615 (VLPPDTDPA; listed as Homo sapiens) [compound 615]
21,“+++” (≥50 = +++),486 (AVMESIQGV; listed as Homo sapiens) [compound 486]
22,“++” (≥20% = ++),580 (LLMENAERV; listed as Homo sapiens) [compound 580]
23,“+++” (≥50 = +++),241 (SLVEVNPAYSV; listed as Homo sapiens) [compound 241]
24,“+++” (≥50 = +++),507 (KLIDDQDISISL; listed as Homo sapiens) [compound 507]
25,“+++” (≥50 = +++),599 (YLLNDASLISV; listed as Homo sapiens) [compound 599]
26,“+++” (≥50 = +++),255 (VLASYNLTV; listed as Homo sapiens) [compound 255]
27,“++” (≥20% = ++),217 (ALIHPVSTV; listed as Homo sapiens) [compound 217]
28,“++++” (≥75% = ++++),620 (KLLNKIYEA; listed as Homo sapiens) [compound 620]
29,“++++” (≥75% = ++++),527 (FLLEPGNLEV; listed as Homo sapiens) [compound 527]
